Values of other authors in publication PMC9371363.

Tests used:
[1] = target: IL-4Rα (Homo sapiens) (UniProt P24394)
[2] = target: IL-13Rα2 (Homo sapiens) (UniProt Q14627)
UniProt Q14627, sequence (Q14627 27-343): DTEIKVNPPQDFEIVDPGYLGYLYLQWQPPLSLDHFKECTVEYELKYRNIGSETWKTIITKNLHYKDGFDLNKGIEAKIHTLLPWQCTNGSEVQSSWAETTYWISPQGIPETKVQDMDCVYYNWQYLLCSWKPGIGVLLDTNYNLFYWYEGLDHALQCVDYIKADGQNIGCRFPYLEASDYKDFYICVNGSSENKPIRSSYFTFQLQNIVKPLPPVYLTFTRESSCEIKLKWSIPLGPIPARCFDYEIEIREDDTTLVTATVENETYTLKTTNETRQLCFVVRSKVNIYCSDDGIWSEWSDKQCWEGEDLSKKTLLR

UniProt P24394, sequence (P24394 26-232): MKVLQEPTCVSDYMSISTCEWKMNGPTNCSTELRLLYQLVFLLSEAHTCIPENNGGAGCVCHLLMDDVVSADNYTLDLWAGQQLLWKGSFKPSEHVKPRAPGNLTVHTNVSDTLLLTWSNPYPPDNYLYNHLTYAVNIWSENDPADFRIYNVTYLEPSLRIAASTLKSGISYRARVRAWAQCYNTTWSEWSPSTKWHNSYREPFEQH

| Substance | Kd [1] [pM] | Kd [2] [pM] |
| --- | --- | --- |
| IL-4 (from UniProt P05112) | 100 | – |
| IL-13 (from UniProt P35225) | – | < 0.001 |
